In PMC5758712 (2018):
Values belong to the binder of their own block, whether it stands above or below them.

Tests used:
UBE2D1 = UBE2D1 (Homo sapiens (Human), UniProt P51668); test: ITC; UbcH7 cells RING1 fragment, UbcH5A cells whole RBR
UBE2L3 = UBE2L3 (Homo sapiens (Human), UniProt P68036); test: as above
Sequence of UBE2L3 (P68036 whole entry): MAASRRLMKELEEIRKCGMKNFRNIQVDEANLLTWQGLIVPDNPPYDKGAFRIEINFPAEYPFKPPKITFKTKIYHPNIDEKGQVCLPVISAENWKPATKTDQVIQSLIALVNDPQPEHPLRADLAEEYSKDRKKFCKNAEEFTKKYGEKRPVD

Sequence of UBE2D1 (P51668 whole entry, the tested form may be a part): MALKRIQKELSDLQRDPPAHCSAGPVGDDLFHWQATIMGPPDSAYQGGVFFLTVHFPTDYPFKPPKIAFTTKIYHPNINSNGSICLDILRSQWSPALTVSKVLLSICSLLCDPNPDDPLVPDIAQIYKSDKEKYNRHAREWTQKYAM

Kd (UBE2D1): > 50 µM | Kd (UBE2L3): 3.2 µM
B1: TRIAD3A (protein)
chain: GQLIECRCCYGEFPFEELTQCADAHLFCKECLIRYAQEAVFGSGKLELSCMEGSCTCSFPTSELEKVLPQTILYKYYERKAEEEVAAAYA

Kd (UBE2D1): > 50 µM | Kd (UBE2L3): 0.21 µM
B2: HHARI (protein)
chain: TRSSAQDMPCQICYLNYPNSYFTGLECGHKFCMQCWSEYLTTKIMEEGMGQTISCPAHGCDILVDDNTVMRLITDSKVKLKYQHLITNSFVECN
